From IntAct's records for PubMed 17599067

B1: Serine/threonine-protein kinase TBK1 (Homo sapiens), Q9UHD2 (parent)
chain: MQSTSNHLWLLSDILGQGATANVFRGRHKKTGDLFAIKVFNNISFLRPVDVQMREFEVLKKLNHKNIVKLFAIEEETTTRHKVLIMEFCPCGSLYTVLEEPSNAYGLPESEFLIVLRDVVGGMNHLRENGIVHRDIKPGNIMRVIGEDGQSVYKLTDFGAARELEDDEQFVSLYGTEEYLHPDMYERAVLRKDHQKKYGATVDLWSIGVTFYHAATGSLPFRPFEGPRRNKEVMYKIITGKPSGAISGVQKAENGPIDWSGDMPVSCSLSRGLQVLLTPVLANILEADQEKCWGFDQFFAETSDILHRMVIHVFSLQQMTAHKIYIHSYNTATIFHELVYKQTKIISSNQELIYEGRRLVLEPGRLAQHFPKTTEENPIFVVSREPLNTIGLIYEKISLPKVHPRYDLDGDASMAKAITGVVCYACRIASTLLLYQELMRKGIRWLIELIKDDYNETVHKKTEVVITLDFCIRNIEKTVKVYEKLMKINLEAAELGEISDIHTKLLRLSSSQGTIETSLQDIDSRLSPGGSLADAWAHQEGTHPKDRNVEKLQVLLNCMTEIYYQFKKDKAERRLAYNEEQIHKFDKQKLYYHATKAMTHFTDECVKKYEAFLNKSEEWIRKMLHLRKQLLSLTNQCFDIEEEVSKYQEYTNELQETLPQKMFTASSGIKHTMTPIYPSSNTLVEMTLGMKKLKEEMEGVVKELAENNHILERFGSLTMDGGLRNVDCL
partner: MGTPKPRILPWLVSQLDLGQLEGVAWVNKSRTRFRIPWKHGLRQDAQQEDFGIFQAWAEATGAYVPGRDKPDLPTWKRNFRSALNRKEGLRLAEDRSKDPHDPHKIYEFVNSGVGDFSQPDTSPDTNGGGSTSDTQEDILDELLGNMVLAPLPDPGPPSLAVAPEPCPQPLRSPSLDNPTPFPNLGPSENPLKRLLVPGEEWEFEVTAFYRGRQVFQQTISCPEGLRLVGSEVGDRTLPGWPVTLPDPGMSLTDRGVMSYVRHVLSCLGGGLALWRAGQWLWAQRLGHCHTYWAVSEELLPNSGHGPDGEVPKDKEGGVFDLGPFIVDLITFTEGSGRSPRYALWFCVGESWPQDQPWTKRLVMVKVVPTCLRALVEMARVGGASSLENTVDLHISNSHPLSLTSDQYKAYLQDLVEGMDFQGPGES
B2: Inhibitor of nuclear factor kappa-B kinase subunit epsilon (Homo sapiens), Q14164 (parent)
chain: MQSTANYLWHTDDLLGQGATASVYKARNKKSGELVAVKVFNTTSYLRPREVQVREFEVLRKLNHQNIVKLFAVEETGGSRQKVLVMEYCSSGSLLSVLESPENAFGLPEDEFLVVLRCVVAGMNHLRENGIVHRDIKPGNIMRLVGEEGQSIYKLTDFGAARELDDDEKFVSVYGTEEYLHPDMYERAVLRKPQQKAFGVTVDLWSIGVTLYHAATGSLPFIPFGGPRRNKEIMYRITTEKPAGAIAGAQRRENGPLEWSYTLPITCQLSLGLQSQLVPILANILEVEQAKCWGFDQFFAETSDILQRVVVHVFSLSQAVLHHIYIHAHNTIAIFQEAVHKQTSVAPRHQEYLFEGHLCVLEPSVSAQHIAHTTASSPLTLFSTAIPKGLAFRDPALDVPKFVPKVDLQADYNTAKGVLGAGYQALRLARALLDGQELMFRGLHWVMEVLQATCRRTLEVARTSLLYLSSSLGTERFSSVAGTPEIQELKAAAELRSRLRTLAEVLSRCSQNITETQESLSSLNRELVKSRDQVHEDRSIQQIQCCLDKMNFIYKQFKKSRMRPGLGYNEEQIHKLDKVNFSHLAKRLLQVFQEECVQKYQASLVTHGKRMRVVHETRNHLRLVGCSVAACNTEAQGVQESLSKLLEELSHQLLQDRAKGAQASPPPIAPYPSPTRKDLLLHMQELCEGMKLLASDLLDNNRIIERLNRVPAPPDV
partner: B1 chain

Variants of: B1
Settings: with irf3_human IRF3, Q14653

Variant	effect of a mutation on the interaction
I353A	disrupting interaction
L352A	disrupting interaction

Variants of: B2
Settings: with tbk1_human TBK1, Q9UHD2

Variant	effect of a mutation on the interaction
F354A	increasing interaction
L353A	increasing interaction
